B1: PSD2 (parent)
chain: PLMGETQERERVLTHFSRRYCQCN
B2: KCNAB2 (parent)
chain: IPPYSRASLKGYQWLKDKILSEEG

Variants of: B1
Test: protein stability index of a GFP-peptide fusion (GPS, HEK-293T) (PSI 1-6); higher = more stable
Settings: c terminus: a fixed tail appended
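Further: lentivirally expressed fusions sorted by FACS into six bins by GFP to DsRed ratio, PSI derived from sequencing read proportions per bin multiplied by bin number.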

Protein stability index: each site, then its substitutions
R11: T 3.06
V12: N 2.99 | I 3.05 | R 3.15 | T 3.73 | H 3.24 | A 3.49
E5: W 1.86
R9: C 2.68 | G 2.98 | I 2.07
Q7: M 2.22 | W 1.44 | K 2.4 | I 1.97
T14: Y 1.71 | Q 2.56 | S 3.18 | G 2.83 | L 2.02 | P 2.88 | I 2.13 | M 2.72
L13: A 2.71 | G 3.52 | F 2.51 | T 2.65 | D 3.18
C23: I 2.99 | F 3.18 | A 4.01 | Y 2.85 | L 2.9 | H 3.44
S17: P 3.18 | N 3.15 | R 2.42 | L 1.99 | D 3.37 | F 1.68
R19: L 2.4 | M 2.22 | P 3.59
F16: G 3.84 | D 4.44 | S 4.35 | V 3 | N 3.58
E10: R 1.82 | W 1.87 | F 2.19 | D 2.44 | K 2.58 | M 1.93
H15: A 2.62 | K 3.41 | L 2.7 | Q 1.99 | Y 2.44 | N 3.02
Y20: T 3.63 | P 3.72 | M 2.69 | G 3.86 | W 2.42 | F 2.96
N24: D 3.23 | C 3.05 | K 2.2 | V 2.69 | H 3.21 | E 3.84 | L 2.71
M3: G 4 | A 3.72 | E 3.3 | I 2.37
L2: P 2.99 | G 4.03 | T 3.01 | F 2.41
G4: I 2.76 | N 2.92 | L 2.02
T6: F 2.22 | Y 2.33 | M 2.52 | K 2.14 | G 2.84
R18: P 3.01 | T 3.09 | L 2.24 | A 3.49 | F 1.99
C21: D 4.01 | F 3.27 | T 4.43 | P 3.92
E8: V 1.71 | Y 1.79
Q22: C 2.11 | K 3.02 | A 3.55 | T 3.08 | Y 2.08 | S 3.04 | P 2.71

Variants of: B2
Test: as above
Settings: c terminus: a fixed tail appended

Protein stability index of substitutions, site by site:
W14: M 3.66 | N 3.78 | G 4.07 | K 3.65 | Q 3.04 | A 3.76 | F 4.47 | L 3.57 | E 3.59 | S 2.95 | V 3.6 | R 3.73 | I 3.45 | H 3.57 | D 3.73 | Y 3.32 | T 3.3 | P 3.97
L20: K 2.81 | I 2.29 | H 2.16 | G 2.19 | Q 2.8 | E 3.75 | M 2.47 | S 2.92 | A 3.71 | W 2.54 | Y 2.51 | F 1.98 | T 3.54 | P 3.27 | N 3.06 | D 3.91 | V 2 | C 2.63
I19: Q 2.12 | T 3.4 | E 4 | Y 2.58 | D 3.73 | L 2.86 | V 3.17 | H 2.98 | M 3.53 | R 3.32 | N 2.86 | S 3.16 | P 3.8 | F 2.21 | A 2.57
G24: D 3.48 | N 2.05 | L 1.43 | F 1.99 | R 1.47 | E 3.1 | C 2.06 | V 1.77 | I 1.81 | H 2.09 | T 1.99 | W 1.35 | K 2.61 | S 2.49 | P 1.95 | Q 3.79 | M 2.56 | A 2.31 | Y 1.48
Q13: E 2.34 | P 2.03 | T 2.55 | N 2.32 | H 2.46 | L 1.16 | D 3.63 | G 1.93 | C 1.84 | V 2.08 | Y 1.53 | K 1.74 | F 2.6 | A 1.82 | S 2.95 | R 2.49
D17: E 1.26 | V 2.51 | I 1.69 | R 1.91 | W 1.72 | C 1.3 | P 2.46 | H 2.69 | A 2.65 | Q 2.18 | T 1.68 | G 2.03 | N 2.39 | F 2.25 | K 2.04 | Y 1.8 | M 1.57 | L 1.93 | S 1.6
E23: D 1.51 | K 1.84 | H 1.76 | N 2 | A 3.77 | F 3.45 | Y 2.18 | V 2.5 | T 3.2 | P 1.6 | Q 2.39 | S 4.83 | R 2.43 | I 2.62 | M 2.31
E22: W 2.74 | Q 2.47 | C 2.09 | S 2.08 | F 2.12 | G 1.68 | R 1.62 | N 2.26 | T 1.97 | P 2.48 | H 1.45 | D 2.68 | V 1.22 | A 2.74 | K 1.75
K16: E 2.19 | R 3.2 | I 2.49 | H 1.53 | N 3.29 | D 3.77 | W 2.29 | M 1.71 | V 2.08 | S 2.38 | C 3.16 | Q 2.31 | L 1.02 | A 1.82 | G 3.26 | P 3.39 | T 2.74 | Y 1.84
L15: A 3.71 | N 3.64 | G 3.2 | K 3.22 | D 4.13 | M 2.47 | P 3.61 | T 3.08 | H 3.73 | Y 2.19 | V 2.91 | Q 3.52 | E 3.19 | F 2.59 | C 3.47 | I 2.11 | W 2.18 | R 2.37 | S 3.53
Y12: A 3.34 | Q 3.18 | L 2.51 | T 3.81 | F 2.84 | G 3.5 | W 1.32 | C 3.04 | R 3.44 | N 3.13 | P 3.17 | I 2.45 | V 2.71 | K 4.35 | H 3.62 | S 4.02 | E 3.87 | D 3.97
S21: K 3.24 | Q 3.31 | V 1.67 | C 2.42 | N 2.02 | Y 2.08 | R 1.68 | A 2.8 | M 2.43 | F 2.28 | W 3.22 | H 2.12 | G 1.86 | P 2.45 | T 2.31 | I 2.3 | L 2.19 | D 3.56
K18: Q 3.23 | W 1.39 | G 2.95 | P 2.83 | F 1.96 | I 1.71 | Y 2.05 | D 2.77 | M 2.78 | E 2.95 | R 1.02 | C 2.51 | L 1.6 | A 2.63 | V 3.75 | T 2.11 | N 3.29 | S 3.17 | H 1.98
